Reference: patent US20110044980A1
“And” between values parts separate entries of the source, which are not always exact repeats. Equal entries are not always repeated.

Tests used:
[1] = biological target: FcgRIIb (human) (UniProt P31994); experiment: flow cytometry (FACSCalibur), CHO-FcgRII-b-1 cells, pH 7.4, 100 ug/ml
[2] = biological target: FcgRI (human) (UniProt P12314); experiment: flow cytometry (FACSCalibur), THP-1 cells, pH 7.4, 100 ug/ml
[3] = biological target: FcgRIIb (human) (UniProt P31994); experiment: flow cytometry (FACSCalibur), CHO-FcgRII-b-1 cells, pH 7.4, detection reagent alone
[4] = biological target: FcRn (UniProt P55899); experiment: flow cytometry (FACSCalibur), FcRnGPI-CHO cells, pH 6.4, detection reagent alone
[5] = biological target: FcgRIIa (human) (UniProt P12318); experiment: flow cytometry (FACSCalibur), K562 cells, pH 7.4, detection reagent alone
FcgRIIa (human), sequence (P12318 34-317): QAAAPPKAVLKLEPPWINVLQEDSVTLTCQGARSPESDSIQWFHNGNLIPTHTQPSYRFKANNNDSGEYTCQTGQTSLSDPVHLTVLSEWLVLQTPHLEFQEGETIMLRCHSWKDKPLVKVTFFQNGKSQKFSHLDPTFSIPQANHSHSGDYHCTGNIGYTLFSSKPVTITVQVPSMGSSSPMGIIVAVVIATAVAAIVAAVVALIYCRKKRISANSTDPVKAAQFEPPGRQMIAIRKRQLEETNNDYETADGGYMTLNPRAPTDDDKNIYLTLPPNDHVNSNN

Fc Receptor Binding Geometric Mean [1]	Fc Receptor Binding Geometric Mean [2]	Fc Receptor Binding Geometric Mean [3]	Fc Receptor Binding Geometric Mean [4]	Fc Receptor Binding Geometric Mean [5]	Substance
3	101 and 67				EGFR (Erbitux ®, Imclone) (antibody)
		3	6 and 5	3	R-PE conjugated anti-human IgG F(Ab')2 (Jackson ImmunoResearch, Cat.#109-116-170)
